Laboratory results: patent US20180057589A1 (Genentech, published 2018)

How the values were obtained:
[1] = molecular target: T1, FLAG-Human-Notch2-NRR-6xHis (human, UniProt Q04721 1306-1676); assay: SPR (BIAcore-3000), IgG captured by anti-human IgG, Notch2 NRR injected; human Notch2 NRR antigen
T1 construct: Whole tagged antigen construct; also called NRR2; hNotch2 NRR
T1 sequence: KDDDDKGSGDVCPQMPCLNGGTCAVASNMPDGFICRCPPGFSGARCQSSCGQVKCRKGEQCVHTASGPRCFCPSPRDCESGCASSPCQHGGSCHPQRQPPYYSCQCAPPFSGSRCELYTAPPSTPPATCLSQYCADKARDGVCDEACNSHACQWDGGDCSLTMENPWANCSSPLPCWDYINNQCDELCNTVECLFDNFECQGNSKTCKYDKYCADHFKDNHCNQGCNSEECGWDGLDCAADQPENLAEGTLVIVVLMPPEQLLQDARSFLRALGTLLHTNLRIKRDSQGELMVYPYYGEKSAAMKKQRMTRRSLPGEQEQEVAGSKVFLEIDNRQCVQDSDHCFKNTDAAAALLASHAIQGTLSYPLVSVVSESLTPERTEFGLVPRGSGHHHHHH
Method: (§1) For kinetics measurements, two-fold serial dilutions of human and mouse Notch2 NRR (3.9 nM to 500 nM) were injected in PBT buffer (PBS with 0.05% Tween 20) at 25° C. with a flow rate of 30 μl/min. Association rates (kₒₙ) and dissociation rates (koff) were calculated using a simple one-to-one Langmuir binding model (BIAcore Evaluation Software version 3.2). The equilibrium dissociation constant (KD) was calculated as the ratio koff/kₒₙ.

[2] = molecular target: T2, human Notch1 NRR protein (human, UniProt P46531 1446-1733); assay: ELISA, lower panel: Flag-tagged NRR protein captured by anti-Flag antibody, titration of α-NRR2, A560
T2 construct: Purified NRR fragment (Flag-tagged in the ELISA); also called NRR1; hNotch1 NRR
T2 sequence: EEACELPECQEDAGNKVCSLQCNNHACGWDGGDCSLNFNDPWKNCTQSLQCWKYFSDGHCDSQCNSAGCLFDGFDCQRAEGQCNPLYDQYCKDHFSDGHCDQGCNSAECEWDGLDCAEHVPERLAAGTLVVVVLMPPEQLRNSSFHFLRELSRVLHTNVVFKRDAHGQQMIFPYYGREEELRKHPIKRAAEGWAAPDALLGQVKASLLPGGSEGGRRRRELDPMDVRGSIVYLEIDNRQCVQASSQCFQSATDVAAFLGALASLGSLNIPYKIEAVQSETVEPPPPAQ
Text: (§2) Anti-Flag antibody was used to capture Flag-Tagged NRR protein from all four Notch receptors in a black walled, high binding plate (Greiner). NRR antibody and E25 control antibodies were bound to the NRR proteins and washed away with PBS. An Alkaline Phosphate conjugated anti-human (H+L) secondary antibody (Jackson ImmunoResearch) was used to detect bound anti-NRR and E25. Unbound secondary was washed away and AP was detected with PNPP substrate (Pierce).

[3] = molecular target: T3, human Notch3-NRR protein (human, UniProt Q9UM47 1384-1641, limits assumed); assay: as above
T3 construct: domain: NRR; also called hNotch3 NRR
T3 sequence (looked up): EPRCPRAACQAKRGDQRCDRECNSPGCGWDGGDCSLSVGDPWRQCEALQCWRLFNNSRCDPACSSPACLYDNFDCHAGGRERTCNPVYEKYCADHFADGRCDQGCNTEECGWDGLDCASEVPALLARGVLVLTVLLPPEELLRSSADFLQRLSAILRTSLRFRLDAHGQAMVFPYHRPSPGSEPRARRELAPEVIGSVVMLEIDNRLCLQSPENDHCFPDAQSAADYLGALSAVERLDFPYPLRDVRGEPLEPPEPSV
Text: as §2

[4] = molecular target: T4, mouse Notch1 NRR protein (mouse, UniProt Q01705 1446-1723); assay: as above
T4 construct: Purified NRR fragment (Flag-tagged in the ELISA); also called mNotch1 NRR
T4 sequence: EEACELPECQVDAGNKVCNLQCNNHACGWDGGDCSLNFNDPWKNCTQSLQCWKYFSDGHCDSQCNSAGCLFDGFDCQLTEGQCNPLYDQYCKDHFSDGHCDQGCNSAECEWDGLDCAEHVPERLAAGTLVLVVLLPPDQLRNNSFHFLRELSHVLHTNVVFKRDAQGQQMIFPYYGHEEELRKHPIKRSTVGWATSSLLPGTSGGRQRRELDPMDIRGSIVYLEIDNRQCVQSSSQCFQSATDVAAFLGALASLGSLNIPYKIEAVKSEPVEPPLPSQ
Text: as §2

[5] = molecular target: T5, mouse Notch3-NRR protein (mouse, UniProt Q61982 1385-1641, limits assumed); assay: as above
T5 construct: domain: NRR; also called mNotch3 NRR
T5 sequence (looked up): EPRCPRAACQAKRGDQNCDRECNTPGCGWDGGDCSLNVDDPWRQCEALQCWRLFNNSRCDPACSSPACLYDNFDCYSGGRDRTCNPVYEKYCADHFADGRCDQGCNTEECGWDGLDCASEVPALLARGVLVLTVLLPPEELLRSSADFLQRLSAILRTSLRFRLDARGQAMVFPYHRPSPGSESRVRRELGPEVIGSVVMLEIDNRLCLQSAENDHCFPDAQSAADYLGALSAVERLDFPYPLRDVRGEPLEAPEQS
Text: as §2

[6] = molecular target: T6, human Notch4-NRR protein (human, UniProt Q99466 1172-1445, limits assumed); assay: as above
T6 construct: domain: NRR; also called hNotch4 NRR
T6 sequence (looked up): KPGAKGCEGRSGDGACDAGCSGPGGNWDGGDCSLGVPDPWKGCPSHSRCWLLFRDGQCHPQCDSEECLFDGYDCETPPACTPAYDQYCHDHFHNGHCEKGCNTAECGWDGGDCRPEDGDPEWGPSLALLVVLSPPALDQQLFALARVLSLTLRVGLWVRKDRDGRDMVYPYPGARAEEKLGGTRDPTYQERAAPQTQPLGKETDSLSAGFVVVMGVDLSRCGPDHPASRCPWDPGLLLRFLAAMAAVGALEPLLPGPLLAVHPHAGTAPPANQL
Text: as §2

[7] = molecular target: T7, mouse Notch4-NRR protein (mouse, UniProt P31695 1168-1441, limits assumed); assay: as above
T7 construct: domain: NRR; also called mNotch4 NRR
T7 sequence (looked up): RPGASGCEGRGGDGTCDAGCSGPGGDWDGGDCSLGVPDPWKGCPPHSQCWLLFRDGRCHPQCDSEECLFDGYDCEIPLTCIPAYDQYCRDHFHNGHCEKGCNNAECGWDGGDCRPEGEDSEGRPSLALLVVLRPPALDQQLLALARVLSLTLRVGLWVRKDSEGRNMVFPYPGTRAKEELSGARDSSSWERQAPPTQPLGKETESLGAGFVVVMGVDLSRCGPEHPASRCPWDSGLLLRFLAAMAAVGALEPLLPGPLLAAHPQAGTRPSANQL
Text: as §2

[8] = molecular target: T1, FLAG-Human-Notch2-NRR-6xHis; assay: ELISA, lower panel: Flag-tagged NRR protein captured by anti-Flag antibody, titration of α-NRR2, AP-conjugated anti-human secondary antibody, A560
Text: as §2

[9] = molecular target: T8, Mouse Notch2-NRR-FLAG (mouse, UniProt O35516 1306-1678); assay: SPR (BIAcore-3000), IgG captured by anti-human IgG, Notch2 NRR injected; mouse Notch2 NRR antigen
T8 construct: Whole tagged antigen construct; also called murine Notch2 NRR; mNotch2 NRR
T8 sequence: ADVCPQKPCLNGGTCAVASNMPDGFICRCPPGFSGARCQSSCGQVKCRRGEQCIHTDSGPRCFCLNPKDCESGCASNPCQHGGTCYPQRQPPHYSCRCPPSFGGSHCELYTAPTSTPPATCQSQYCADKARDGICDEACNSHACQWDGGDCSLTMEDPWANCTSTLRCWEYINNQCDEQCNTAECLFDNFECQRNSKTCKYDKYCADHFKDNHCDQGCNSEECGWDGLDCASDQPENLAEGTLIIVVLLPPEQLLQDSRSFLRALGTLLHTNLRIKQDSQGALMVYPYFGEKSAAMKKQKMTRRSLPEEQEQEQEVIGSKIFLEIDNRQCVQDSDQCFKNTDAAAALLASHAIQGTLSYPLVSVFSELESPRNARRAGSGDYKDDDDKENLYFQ
Method: as §1

B1: Antibody D-3 (antibody, V domains shown)
VH: EVQLVESGGGLVQPGGSLRLSCAASGYTFSSYGMSWVRQAPGKGLEWVSYIYPYSGATYYADSVKGRFTISADTSKNTAYLQMNSLRAEDTAVYYCARHSGYYRISSAMDVWGQGTLVTVSA
VL: DIQMTQSPSSLSASVGDRVTITCRASQNIKRFLAWYQQKPGKAPKLLIYGASTRESGVPSRFSGSGSGTDFTLTISSLQPEDFATYYCQQYYRSPHTFGQGTKVEIKR
notes: also called anti-NRR2; α-NRR2
For B1, the Kd [1] was 5 nM, the binding result [2] was “no binding (tested: 10 ug/ml)” and the binding result [3] was “no binding (tested: 10 ug/ml)”. B1: no binding (tested: 10 ug/ml) [4]; no binding (tested: 10 ug/ml) [5]; no binding (tested: 10 ug/ml) [6]. The binding result [7] was “no binding (tested: 10 ug/ml)”, the “EC50 (read off the curve)” value [8] was ~0.03 µg/mL and the Kd [9] was 5 nM.
